Patent US20060094013

T1: peptide p300 [84-93 (S89A)], Q09472
T1 chain: LLRSGASPNL

B1: GST-mSIK2 (protein)
chain: MVMADGPRHLQRGPVRVGFYDIEGTLGKGNFAVVKLGRHRTTKTEVAIKIIDKSQLDAVNLEKIYREVQIMKMLDHPHIIKLYQVMETKSMLYLVTEYAKNGEIFDYLANHGRLNESEARRKFWQILSAVDYCHGRKVVHRDLKAENLLLDNNMNIKIADFGFGNFFKTGELLATWCGSPPYAAPEVFEGQQYEGPQLDIWSMGVVLYVLVCGALPFDGPTLPILRQRVLEGRFRIPYFMSEDCEHLIRRMLVLDPSKRLSIAQIKEHKWMLIEVPVQRPILYPQEQENEPSIGEFNEQVLRLMHSLGIDQQKTVESLQNKSYNHFAAIYFLLVERLKSHRSSFPVEQRLDGRQRRPSTIAEQTVAKAQTVGLPVTLHPPNVRLMRSTLLPQASNVEAFSFPTSSCQAEAAFMEEECVDTPKVNGCLLDPVPPVLVRKGCQSLPSSMMETSIDEGLETEGEAEEDPSQAFEAFQATRSGQRRHTLSEVTNQLVVMPGAGKMFSMSDNPSLESVDSEYDMGSAQRDLNFLEDSPSLKDIMLANQPSPRMTSPFISLRPANPAMQALSSQKREAHNRSPVSFREGRRASDTSLTQGIVAFRQHLQNLARTKGILELNKVQLLYEQMGSNADPTLTSTAPQLQDLSSSCPQEEISQQQESVSSLSASMHPQLSPQQSLETQYLQHRLQKPNLLPKAQSPCPVYCKEPPRSLEQQLQEHRLQQKRLFLQKQSQLQAYFNQMQIAESSYPGPSQQLALPHQETPLTSQQPPSFSLTQALSPVLEPSSEQMQFSSFLSQYPEMQLQPLPSTPGPRAPPPLPSQLQQHQQPPPPPPPPPPQQPGAAPTSLQFSYQTCELPSTTSSVPNYPASCHYPVDGAQQSNLTGADCPRSSGLQDTASSYDPLALSELPGLFDCEMVEAVDPQHNGVVSCLARET
B2: GST-rat SIK1 (protein)
chain: MVIMSEFSAVPTGTGQGQQKPLRVGFYDVERTLGKGNFAVVKLARHRVTKTQVAIKIIDKTRLDSSNLEKIYREVQLMKLLNHPNIIKLYQVMETKDMLYIVTEFAKNGEMFDYLTSNGHLSENEARKKFWQILSAVEYCHNHHIVHRDLKTENLLLDGNMDIKLADFGFGNFYKPGEPLSTWCGSPPYAAPEVFEGKEYEGPQLDIWSLGVVLYVLVCGSLPFDGPNLPTLRQRVLEGRFRIPFFMSQDCETLIRRMLVVDPAKRITIAQIRQHRWMQADPTLLQQDDPAFSMQGYTSNLGDYNEQVLGIMQALGIDRQRTVESLQNSSYNHFAAIYYLLLERLREHRSTQPSSRATPAPARQPQLRNSDLSSLEVPQEILPCDPFRPSLLCPQPQALAQSVLQAEIDCDLHSSLQPLFFPLDTNCSGVFRHRSISPSSLLDTAISEEARQGPSLEEEQEVQEPLPGSTGRRHTLAEVSTHFSPLNPPCIIVSSSAAVSPSEGTSSDSCLPFSASEGPAGLGGGLATPGLLGTSSPVRLASPFLGSQSATPVLQSQAGLGATVLPPVSFQEGRRASDTSLTQGLKAFRQQLRKNARTKGFLGLNKIKGLARQVCQSSIRGSRGGMSTFHTPAPSSGLQGCTASSREGRSLLEEVLHQQRLLQLQHHSAVSSDYQQAPQLSPVPYVLTPCDGLLVSGIPLLPTPLLQPGMSPVASAAQLLDAHLHISAGPVALPTGPLPQCLTRLSPSCDPAGLPQGDCEMEDLTSGQRGTFVLVQ

How the values were obtained:
[1] = target: GST-Syntide 2 [GST: P08515]
Chain of GST-Syntide 2 [GST: P08515] (P08515 whole entry, looked up): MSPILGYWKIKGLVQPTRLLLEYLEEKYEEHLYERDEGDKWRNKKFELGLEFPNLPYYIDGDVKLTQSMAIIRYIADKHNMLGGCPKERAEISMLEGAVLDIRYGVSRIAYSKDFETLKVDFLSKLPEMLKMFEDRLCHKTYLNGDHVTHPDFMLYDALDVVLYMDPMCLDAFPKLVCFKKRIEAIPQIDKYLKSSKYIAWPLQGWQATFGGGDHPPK

[2] = target: T1, peptide p300 [84-93 (S89A)], Q09472
[3] = target: SIK1 substrate mutant (R574/575A) wherein arginines at positions 574 and 575 are substituted with alanines
[4] = target: SIK1 substrate mutant (R575A) wherein arginine at position 575 is substituted with alanine
[5] = target: SIK1 peptide wherein serine at position 577 is substituted with alanine (on GST as carrier protein) [GST: P08515]
Chain of SIK1 peptide wherein serine at position 577 is substituted with alanine (on GST as carrier protein) [GST: P08515] (P08515 whole entry, looked up): as above

[6] = target: wild-type SIK1 peptide not phosphorylated by PKA (on GST as carrier protein) [GST: P08515]
Chain of wild-type SIK1 peptide not phosphorylated by PKA (on GST as carrier protein) [GST: P08515] (P08515 whole entry, looked up): as above

[7] = target: SIK1 substrate mutant (R574A) wherein arginine at position 574 is substituted with alanine

Row | Protein | protein-phosphorylating activity (32P intake, SDS-PAGE) [1] | enzyme activity of SIK (phosphorylation of Syntide 2) [2] | phosphorylation by SIK [2] | phosphorylation of the substrate (32P) [3] | phosphorylation of the substrate (32P) [4] | phosphorylation of the substrate (32P) [5] | phosphorylation of the substrate (32P) [6] | phosphorylation of the substrate (32P) [7]
1 | B1 | wild-type GST-mSIK2 has an auto-phosphorylating activity and an activity of phosphorylating GST-Syntide 2 | the unphosphorylated peptide p300 wherein serine at position 89 is substituted with alanine inhibits the enzyme activity of SIK | a peptide wherein serine at position 89 in p300 is substituted with alanine becomes unphosphorylated |  |  |  |  | 
2 | B2 | GST-rat SIK1 and GST-rat SIK1 (K56M) were subjected to the same experiment. Consequently, the same results were obtained. |  |  | the mutants S577A, R574A, and R574/575A were not phosphorylated | the mutant R575A was phosphorylated much more efficiently than the case of the wild-type SIK1 | the mutants S577A, R574A, and R574/575A were not phosphorylated | the wild-type SIK1 was phosphorylated | the mutants S577A, R574A, and R574/575A were not phosphorylated
